Experiment: label from the status in PepcDB records
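Also: failed if final PepcDB status was selected cloned or expressed and not failed if soluble or beyond.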

| Sequence | protein production |
| --- | --- |
| MNIFKKIKNLSAEFKQNWFQYLILFTSISILNQFVFIPLFRYITTFVLQAGAIPFISYSNLVIILSEHPFVVFFLLIELALLLFVIYSQFALIILFIKNNFALKASISEFGQCLRHFRLGSLLLLAIYFLLVIPFANVVFRTPLLAKIKIPQFIIDYMTRSGILLAILIIFYLVIFVLAFRFLLTLPIMVIYKTTTREAMKKSAFLMKKNWRKVIGFFVPLGILAIVIMAINVGGAYLLQLIWDTFPGKFALIMATINLTLFQIISEVFLIWVSAVSLYFLVKLVTKNNNEIKEKVTNNKIILITIISIWSLAITGNIIENVFYLAGLDDHVPVTISHRGVNDKNGVQNTIESLKKTAKLKPDYVEIDVHETKDNQFVIMHDENLKKLTGKDKRPKELTLNQLTKLIAKEDGYKGKVVSLDQYMQAAQKLKQKLLIEIKTTPNDSNEFLVKFNKKYGHEILKNHYQLQSLDYRVVTKMQQLNPKIETLYIQPYNLIYPQSVADGYSMEYSTLSSDFIWQAHLQNHVVYAWTVNNKSEMKKMMYEHVDGIITDNISMLNTAIKEFQSRQSYANRILNYMMAFPILD | failed |
| MNSDGSDNFELVKKSYGRNFSGISGCAWSPDGSRIAYISSDHNGSDRLVTLNPDGSNEQIVASFAEISALAWAPDSSGMAFNAAYSEDGQTGIYLADLESSEPVFLVRGEIRQQIQSWQSEVWSPDGSRILYSSNENGNSDTNENGNSDIYSVNTDGSEKIQLTDDNSKDYSPCFSPDGSKIIFISDRTGHSSIWIMSSNGDKEEELTEGFEGIHDFSWNPNGQKIAFSSDSNSYIQEIDYSESGDEDSQDDSSSDDSDNDTEVNPEYLHMEILSPDLNFAASQGTPELITVRITNNSGSPVQSSGFKFIKANFSNGDPELQLFDDGTHEDITASDGIFSNQWIPVNTTGLPLTLCILWASADHESLGDAEQIISGTISRKPIPSDLVIENISWSPADPYVNDNITFSITSANRGSGPSEACKVKCYINGNEAYSYSLPELEARSSTSIIFSWIPTAPGNIDVKAVVDEENQVSESVEENNEKSVSFSVKSLTPSTSSGKSGGKSSSSGGGGGGGGSPEPASNVRIKELSQQYITSGKYAKFAFPRNATCVTHVAFNSRRTAGKTTTIVEMLKNKSTRVPDLPAGKIYENVNIWVGNKGTADPENIENAVVGFRVEKSWITLNDVDPASVRLWRLSSGEWEELSIRQSGEDDRYSYFEAQTEGFSHFVITAPSGENETIENALKSSIVPPVRSSAEVMEELFGKLSGKQNADFPVISAMSVNESGSEPEAPSTAGHAADRITGRGIIKVLVVIALLSVTGFLGSLILRKQN | failed |
| DTVANASGPLMVEIVKTPGSALGISLTTTSLRNKSVITIDRIKPASVVDRSGALHPGDHILSIDGTSMEHCSLLEATKLLASISEKVRLEILPVPQSQRPLRPS | not failed |
| MTKPMIQIALDQTNLTDAVAVASNVASYVDVIEVGTILAFAEGMKAVSTLRHNHPNHILVCDMKTTDGGAILSRMAFEAGADWITVSAAAHIATIAACKKVADELNGEIQIEIYGNWTMQDAKAWVDLGITQAIYHRSRDAELAGIGWTTDDLDKMRQLSALGIELSITGGIVPEDIYLFEGIKTKTFIAGRALAGAEGQQTAAALREQIDRFWP | not failed |
| MALLIITTILWAFSFSLIGEYLAGSVDSYFSVLMRVGLAALVFLPFLRTRGQSPRTIVLYMLVGAMQLGIMYLLAFRAYLYLTVSEFLLFTVFTPLYITLIYDLLSGRKLRWGYLLSAALAVLGAAIIRYDKVSDHFWTGLLLVQLSNLCFAIGMVGYKRLMEVRPMPQHNAFAWFYVGAFIVAVAAWFMLGNAQKLPTTTLQWSVLVWLGVVASGLGYFMWNYGATQVDAGTLGIMNNVHVPAGLLVNLAIWQEQPHWPSFISGALVILASLWVHRRWVAPHSGQTADDRRRGSAQSE | failed |
| MDIRRIVLYMALALIGLSLWNAWQIDYPAKQPVEEKTASQLTSDGHLLPQIIPSNAEQPVTLKAEEKASSGKQLIQVKTDVLDVDIDLKNGDIVKGLLLDYPLSVEDKNKPFPLLQNQASQRYVANSSLFVLDGQTPQSLDFDFTSEKEYYELKPDQNQLIVTLNGKSEDGLDVKKEFVFTKGSYLIEVNYKIANTGNSLWKGYFNTQLLRSSPKEDKSSIFHIGSYTGASFSNPGKNRYQKVSFSDMSKSNLDVDAKGGWIAMQQHYFLSAWVPNADSENKFYTLATDKDYTIGAVSQPITVKPKEDKIVGSKLYIGPEITSVLKGISPSLDLTVDYGILWFLSSLLFSLMKAIYTVVGNWGWSIVLVTVLIKLAFYRLSATSYKSMASMRKLQPKLQALRERYGDDKAKISQATMELYKQEKVNPLGGCLPILIQIPVFIALYWVLLESVELRQAPFIFWINDLASADPYHVLPLIMGATMLIQQKLNPAPADPMQAKVMMFLPILFTGLFWNFPSGLVLYWIVNNTLSILQQWYITRKYSDEKPAKKVVATAK | failed |
| MNIVVQSVYDNTQEFEIIKKWRENYIGINPANGNDFEYWESIREDCSYSFYFYYEDQLVGGVRLTPLGHGITMGERQLDLLRFISVPLETLEVNRLVIEERARGKKIMYESLQYCFHWDSRNTTHSELIALCLPHMVPLYRQVGATMIHDNLQSKEMPEKEYSLISINLKGL | failed |
| MFLNYFALGVLIFVFLVIFYGIIAIHDIPYLIAKKRNHPHADAIHTAGWVSLFTLHVIWPFLWIWATLYQPERGWGMQSHVASQEKATDPEIAALSDRISRLEHQLAAEKKTDYSTFPEI | failed |
| MSESNRQRATGLVQAYYEAFNRGDWDAMLAFLAEDVAHDLNQGPREIGRAAFASFLQRMNDSYREQLRDIVVTANDEGTRVGAEYVVHGVYHTTDEGLPDANGQTYVLPGGAFFDVRDGQITRVTNYYNLQEWIAQVSR | not failed |
| RAKAFIDAANQYSINELYLISHALLETGNGTSALANGLTYNGKTVYNMYGIGAYDSNPNYYGAKYAYEQGWFTPEAAIIGGAKFIGSSYIHNTAYNQDTLYKMRWSATATHQYATDIGWAYKQVNRMYSLYSLLDG | not failed |
| MTRSQTRPRRQALAEILGLMGLLVAGGLLAGQGGQTLARSVGGLGGASAPMPSRPWHGSNHTPLPSRGDGMAALDHNLITAASIGDLDLVNRLLKAGASAQATDERGRTALLAAVYNRRGDVMLVLIQAGADVNRKDDEGNSPFLLAAATNQIDVVRLALSHGADLNSTDRYDGTALIAASQHGNVEIVKLLISAGVPVDRVNQLGWTALLEAIILGDGSSRYEDIVQALLDAGADANLADREGVTPSRHARERGYKTMVRMLMRARGH | failed |
| MVTLTLLEPQQKTPLKQWCFENSSVIRIGRAADNHVILSDNLVSRHHLEIRQVSSGGGGSWQVVSKGTNGTFLNGVLVIQDALPNNALLQLAQGGPILQFQVQGIIPPEWQSISGSDSPLSGRGSLAEKSSPELSNNPGSLTCTHEGNSPQNLFCIHCGQPLSVIQTIRHYQVLRTLGQGGMGTTYLAWDAAGVIVGHPKLLVLKQMNADMARIAKAQELFEREAYTLKSLDHPGIPRYYDFFVEGGKKYLAMELVHGQDLEKRIYATGPVIPSLAIAWMIQTCDILDYLHRQEQPLIHRDIKPANLMVRTANNQIAVLDFGAVKEIGTTPGTRIGAEGYCAPEQERGQPLTQSDLYAIGPTIIFLLTGENPFKFYRQKGRGFRFDVSKIPTITPKLRDVIERTTEPLPRDRFQSAKELAAALAACK | failed |
| MSAISPNGAEEHPIGLTLNGQRLTLQVNPWTTLLDLLREQLDLVGTKKGCDHGQCGACTVLRDGKRVNACLTLAIMCDGAELVTIEGLASGDVLHPMQRAFITHDAFQCGYCTPGQICSAVGLAREGRAYTREAIREQMSGNLCRCGAYSNIVAAVEEALPLMTDLAPPQRGPNP | failed |
| SLSEAGYPRKVMQHAEELHERILSFDSRITVPLDFGTTGNEVDKDGPGQLDLVKAGRGRLSGAALAIFGWPEMWNGPNAPHKPTPGFVDEARHQQEIRYKILTGMVRDFPNQVGIAYSPEDFRRLAMEGKFAIVMSMLNAYPLGDDLSQLDKWAARGVRMFGFSYVGNNDWADSSRPLPFFNDSPDALGGLSPLGKQAVERLNDLGVIIDVSQMSTKALEQVAALSRAPIVASHSAPRALVDIKRNLSDHEMQLIKDSGGVIQVVGFPAYLRPLSKPTLDKLDALRARFDLPPLEGLDYALMPGDPIITIWPEQRFGEYASALYGILEEEPKAGLKELVDAIDYTVKKVGIDHVGISSDFNDGGGVDGWKDVSEIRNVTAELITRGYSDADIAKLWGGNFLRAWGEVQKRAKPTATP | not failed |
| GNIEAALFGLIALYAQTKVIDSIIYGGDAGSMATIVTGNPDGIAAKVIYELDRTATVLPAKGAYSRKDTSVLLCTVRKSQFVKLKRIVYEEDPDAFVMVTETSEVLGLGFRAFKDSL | failed |
| MNLQHITILTLFIEGLLSFFSPCVLPILPVYIGILAGQGEEKQSGEIIWDRRKVFTNTFLFISGIAATFFILAFASSLISQFLQSHIQFLQNLGGILILIMGLVQVGLIKSHFFNREYSAKNKVYQAGQKVTPLIAFLMGFTFSFSWTPCIGPILASVFLYASTHQGIYSVLLILIYCLGFVIPFALIALFSQRVMSVFKKQKRFLKYTKLFSGILLILIGISILTGSFAKIAHLFN | failed |
| MRVKTIMTQNPVTITLPATRNYALELFKKYKVRSFPVVNKEGKLVGIISVKRILVNPDEEQLAMLVKRDVPVVKENDTLKKAAKLMLEYDYRRVVVVDSKGKPVGILTVGDIIRRYFAKSEKYKGVEIEPYYQRYVSIVWEGTPLKAALKALLLSNSMALPVVDSEGNLVGIVDETDLLRDSEIVRIMKSTELAASSEEEWILESHPTLLFEKFELQLPNKPVAEIMTRDVIVATPHMTVHEVALKMAKYSIEQLPVIRGEGDLIGLIRDFDLLKVLVKSKA | not failed |
| MENKQVSTTQAAAKEPLIGYVHSIETFGSVDGPGIRYVAFLQGCHMRCQYCHNPDTWKLNVGDQMTADEILEDAAKYRAFWGKTGGITVSGGESLVQIDFILDLFEKAKAMNISTCLDTSGQPFTREQPFFDKFERLMKVTDISLVDIKHIDSAKHKQLTQYGNENILDMIQYMAQHHDDMWIRHVLVPQRTDYDEDLKKLGDYIAKIPNDVVQKVEVLPYHTLGVKKYHEMKIKYRLEGIESPTQDRVANAEKLLHTADYNGYKTWMPLPKL | failed |
| MSLILESLVTTLDEQGRINLAPLGPIVLPPQSPGGLPQFLLRPYEGSTTCDNLLASGNAVIHVIDDALLIAKTAIGKVDASDLVVPIPGLEDTHVRLKRCHRWFAVRVTQRAGTPPRHELTARCLASGLVDPFFGFNRAKHAVIEAAVAATRLHLLPPEEIEEELERARIAIEKTGGEPEREALQLIRRHVRESSISEGHHHHHH | not failed |
| MEKSNLYKVDEFGVKNYNYGILAILSFVLFAFINISLGYVTFVAETAVEGSPVKNYADAFWLMLMSSTTIGFGDVYPITLEGRIAVFTMFILGVGILGGVGAVFANKIFGFADTNIKNRELRQQNEEILLQNDKIYQKLTALEDKLEAFNRETK | failed |
| RPFMQKRAQKALPHVSTGADALVGRKVLVTETIDPTTDKGRVAVDGDVWTARSLTGEVIEKGMRVEIVSYESIVLNVVVLGNDKQ | not failed |
| MKYLKNKIIHFLIFGGIYMDVEVLARAHGQQLVGYEGIKPLSLMGFTSLWMFLVGGLCGVIIGGLNDRPGYYNLKMWKQVLIGGTTITLVELFSGIFFNLYLGLHLWDYSKDRFNFMGQIELKNCIWWYVLPILIIWLDDVLSCYFYGDDRPPSLIMYLVKLVTLR | failed |
| MEFPKMLTRKIKLWDINAHITCRLCSGYLIDATTVTECLHTFCRSCLVKYLEENNTCPTCRIVIHQSHPLQYIGHDRTMQDIVYKLVPGLQEAEMRKQREFYHKLGMEVPGDIKGETCSAKQHLDSHRNGETKADDSSNKEAAEEKPEEDNDYHRSDEQVSICLECNSSKLRGLKRKWIRCSAQATVLHLKKFIAKKLNLSSFNELDILCNEEILGKDHTLKFVVVTRWRFKKAPLLLHYRPKMDLL | failed |

From a protein production outcome set (Wang et al. 2014)
